Laboratory results from patent publication US20190375846A1 (ULTRAHUMAN ONE, published 2019).

T1: hVCAM-1 (human, UniProt P19320)
T1 construct: purified recombinant protein; Member of the panel m8; the axis also carries a separate label hVCAM-Fc (f6)
T1 sequence (looked up): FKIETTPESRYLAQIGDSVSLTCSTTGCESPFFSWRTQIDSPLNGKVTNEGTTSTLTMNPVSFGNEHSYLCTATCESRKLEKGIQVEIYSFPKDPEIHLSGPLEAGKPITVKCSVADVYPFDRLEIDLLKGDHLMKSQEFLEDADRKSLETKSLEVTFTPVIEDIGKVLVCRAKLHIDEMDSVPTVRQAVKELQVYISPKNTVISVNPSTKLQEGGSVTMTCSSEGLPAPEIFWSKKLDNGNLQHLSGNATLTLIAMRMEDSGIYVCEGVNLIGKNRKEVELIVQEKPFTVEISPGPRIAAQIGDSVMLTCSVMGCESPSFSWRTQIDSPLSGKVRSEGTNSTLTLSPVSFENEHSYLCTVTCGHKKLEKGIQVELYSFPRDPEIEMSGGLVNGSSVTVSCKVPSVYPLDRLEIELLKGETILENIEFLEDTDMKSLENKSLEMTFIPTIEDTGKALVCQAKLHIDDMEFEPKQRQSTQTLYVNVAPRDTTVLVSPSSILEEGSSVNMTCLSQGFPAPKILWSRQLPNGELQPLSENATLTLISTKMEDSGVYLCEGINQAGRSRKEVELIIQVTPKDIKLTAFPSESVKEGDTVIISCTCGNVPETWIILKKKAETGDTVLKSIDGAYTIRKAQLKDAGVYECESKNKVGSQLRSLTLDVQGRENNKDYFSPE

T2: hDR3-Fc (human, UniProt Q93038)
T2 construct: recombinant Fc fusion; Member of the panel m8
T2 sequence (fusion chain, looked up): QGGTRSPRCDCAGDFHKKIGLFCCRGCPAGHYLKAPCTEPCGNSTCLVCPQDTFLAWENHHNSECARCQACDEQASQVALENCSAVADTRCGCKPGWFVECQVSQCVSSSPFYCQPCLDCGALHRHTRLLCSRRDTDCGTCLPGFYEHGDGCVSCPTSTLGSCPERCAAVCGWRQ

T3: hOX40-Fc
T3 construct: Member of the panel m8; not shown: Fc part and any linker
T3 chain: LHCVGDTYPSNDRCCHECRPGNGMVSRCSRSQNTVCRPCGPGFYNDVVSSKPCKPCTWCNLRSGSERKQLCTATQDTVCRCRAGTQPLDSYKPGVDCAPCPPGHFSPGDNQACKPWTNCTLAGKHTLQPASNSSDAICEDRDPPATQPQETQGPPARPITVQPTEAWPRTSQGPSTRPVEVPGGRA

T4: human GITR-Fc (human, UniProt Q9Y5U5 26-161)
T4 construct: Recombinant GITR-Fc; also called hGITR-Fc; hGITR; not shown: Fc part
T4 sequence (looked up): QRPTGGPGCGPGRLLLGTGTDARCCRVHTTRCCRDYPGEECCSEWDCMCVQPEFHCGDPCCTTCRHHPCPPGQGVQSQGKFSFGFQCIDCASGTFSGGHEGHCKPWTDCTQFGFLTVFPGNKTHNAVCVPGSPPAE


What was measured:
[1] = target: T5, cynomolgus monkey GITR at the cell surface (cynomolgus monkey); test: flow cytometry, cyno GITR-transfected murine blastoma cells, 10,000-13.7 ng/ml
T5 construct: whole, on cells; also called cyno GITR+ cells
Description: Concentration-dependent binding to GITR at the cell surface was analysed using flow cytometry.

hLTBR-Fc = target: T6, hLTBR-Fc (human, UniProt P36941); test: direct ELISA on coated protein, IgG at 10 µg/ml, OD 450 nm
T6 construct: recombinant Fc fusion; Member of the panel m8
Description: (§1) Off-target homologue binding risk for mVH/mVL (FIG. 8A), VH3/VL2 (FIG. 8B) and lead engineered IgG clones G-G10 (FIG. 8C), I-C2 (FIG. 8D) and D-A6 (FIG. 8E) was examined by direct ELISA on GITR-Fc orthologs and a panel of 13 human TNFRSF and immunoglobulin superfamily proteins (as labelled on each X-axis). Binding to human, cyno and murine GITR-Fcs (h/c/mGITR-Fc) was performed at an IgG concentration of 1 μg/ml. Binding to all other proteins was performed at an IgG concentration of 10 μg/ml.
(§2) Anti-GITR antibodies were tested for polyreactivity by ELISA. Purified, recombinant, target and non-target antigens were coated in 96-well Nunc maxisorp plates at 100 ng per well in carbonate buffer, at 4° C. overnight. Plates were then washed 3× with PBS, blocked with 1% BSA in PBS, then washed 3× with PBS-Tween20. A dilution series of primary antibodies was then applied, plates were washed 3× with PBS-Tween20 followed by application of goat anti-human kappa chain-HRP 1:4,000 secondary antibody. Wells were then washed 3× with PBS-Tween20 and 2× with PBS, 100 μl TMB peroxidase substrate was added per well, the was reaction stopped by adding 100 μl 2M H₂SO₄ and absorbances were read at 450 nm. Anti-GITR antibodies were also tested for binding specificity by flow cytometry. HuT78 cells were activated by incubation with anti-CD3/anti-CD28 beads for 3 days. Naïve cells were incubated in media alone. At the end of the incubation the cells were harvested and the beads removed from the activated cells using a magnet. Cells were incubated with viability dye and then stained with anti-GITR antibodies at 4° C. […] Binding of VH1/VI1 and D-A6 IgG1 proteins were detected by subsequent incubation with a PE labelled goat anti-human IgG. Cells were fixed with 4% PFA before being stored in PBS at 4° C. overnight. Cells were analysed the next day using a BD Fortessa flow cytometer running Diva software. Analysis was performed using FlowJo software.

hICAM-1-Fc = target: T7, hICAM-1-Fc (human, UniProt P05362); test: as above
T7 construct: recombinant Fc fusion; Member of the panel m8
Description: as §1, §2

hVCAM-1 = target: T1, hVCAM-1; test: as above
Description: as §1, §2

hDR3-Fc = target: T2, hDR3-Fc; test: as above
Description: as §1, §2

hBAFFR-Fc = target: T8, hBAFFR-Fc (human, UniProt Q96RJ3); test: as above
T8 construct: recombinant Fc fusion; Member of the panel m8
Description: as §1, §2

hOX40-Fc = target: T3, hOX40-Fc; test: as above
Description: as §1, §2

human GITR-Fc = target: T4, human GITR-Fc; test: direct ELISA, IgG at 1 µg/ml
Description: as §1, §2

[2] = target: T9, cynomolgus monkey GITR-Fc (cynomolgus monkey (Macaca fascicularis)); test: direct ELISA, IgG at 1 µg/ml
T9 construct: also called cyno GITR-Fc; cGITR-Fc
Description: as §1, §2

T8 sequence (Q96RJ3 7-71 limits assumed): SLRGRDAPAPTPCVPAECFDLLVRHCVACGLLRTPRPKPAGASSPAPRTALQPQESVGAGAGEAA
T7 sequence (P05362 28-480 limits assumed): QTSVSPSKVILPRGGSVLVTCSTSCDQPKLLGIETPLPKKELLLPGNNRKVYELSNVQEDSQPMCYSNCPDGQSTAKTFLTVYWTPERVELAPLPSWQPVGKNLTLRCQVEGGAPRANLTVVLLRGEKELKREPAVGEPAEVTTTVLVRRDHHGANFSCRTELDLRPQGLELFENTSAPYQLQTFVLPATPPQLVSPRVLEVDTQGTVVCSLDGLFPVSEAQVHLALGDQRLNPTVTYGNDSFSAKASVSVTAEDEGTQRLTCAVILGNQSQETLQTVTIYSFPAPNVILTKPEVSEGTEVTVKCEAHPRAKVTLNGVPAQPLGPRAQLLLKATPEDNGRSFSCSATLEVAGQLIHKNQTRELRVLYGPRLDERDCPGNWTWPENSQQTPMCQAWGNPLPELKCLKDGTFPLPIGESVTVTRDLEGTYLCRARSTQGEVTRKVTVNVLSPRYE
T6 sequence (P36941 28-227 limits assumed): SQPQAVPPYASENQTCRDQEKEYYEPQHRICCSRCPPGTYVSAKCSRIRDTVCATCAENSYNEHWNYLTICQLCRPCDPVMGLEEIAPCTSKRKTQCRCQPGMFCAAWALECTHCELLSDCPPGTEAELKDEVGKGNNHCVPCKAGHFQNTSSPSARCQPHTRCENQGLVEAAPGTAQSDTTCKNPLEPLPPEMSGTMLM

Binder	concentration at maximum MFI [1] [ng/mL]	binding result (hLTBR-Fc)	binding result (hICAM-1-Fc)	binding result (hVCAM-1)	binding result (hDR3-Fc)	binding result (hBAFFR-Fc)	binding result (hOX40-Fc)	OD450 nm (human GITR-Fc) [OD450 nm]	OD450 nm [2] [OD450 nm]
chimeric anti-GITR IgG1 mVH/mVL (6C8 murine v-domains) (antibody, V domains shown, Full-length human IgG1, kappa; also called GITR-mVH/mVL; chimeric IgG) VH: QVTLKESGPGILKPSQTLSLTCSFSGFSLSTSGMGVGWIRQPSGKGLEWLAHIWWDDDKYYNPSLKSQLTISKDTSRNQVFLKITSVDTADAATYYCARTRRYFPFAYWGQGTLVTVSS VL: DIVMTQSQKFMSTSVGDRVSVTCKASQNVGTNVAWYQQKPGQSPKALIYSASYRYSGVPDRFTGSGSGTDFTLTINNVHSEDLAEYFCQQYNTDPLTFGAGTKLEIK	~1110	no binding (tested: 10 µg/ml)	no binding (tested: 10 µg/ml)	no binding (tested: 10 µg/ml)	no binding (tested: 10 µg/ml)	no binding (tested: 10 µg/ml)	no binding (tested: 10 µg/ml)	> 3	> 1
D-A6 IgG1 (antibody, V domains shown, Human IgG1) VH: EVQLVESGGGLVQPGGSLRLSCAASGFSLSTSGYGVGWVRQAPGKGLEWLAHIWWDDDKYYVDSVKGRFTISRDNAKNSLYLQMNSLRAEDTAVYYCARTRQYFPFAYWGQGTLVTVSS VL: EIVLTQSPATLSLSPGERATLSCRASQSVGSNLAWYQQKPGQAPRLLIYSASYRYTGIPARFSGSGSGTDFTLTISSLEPEDFAVYYCQQYSTDPLTFGGGTKVEIK	~1110	no binding (tested: 10 µg/ml)	no binding (tested: 10 µg/ml)	no binding (tested: 10 µg/ml)	no binding (tested: 10 µg/ml)	no binding (tested: 10 µg/ml)	no binding (tested: 10 µg/ml)	> 3	> 1
G-G10 IgG1 (antibody, V domains shown, Human IgG1) VH: EVQLVESGGGLVQPGGSLRLSCAASGFSLSTFGYGVGWVRQAPGKGLEWLAHIWWDDDKYYVDSVKGRFTISRDNAKNSLYLQMNSLRAEDTAVYYCARTRQYFPFAYWGQGTLVTVSS VL: EIVLTQSPATLSLSPGERATLSCRASQSVGTNLAWYQQKPGQAPRLLIYYASYRYTGIPARFSGSGSGTDFTLTISSLEPEDFAVYYCQQYSNDPLTFGGGTKVEIK	~1110	no binding (tested: 10 µg/ml)	no binding (tested: 10 µg/ml)	no binding (tested: 10 µg/ml)	no binding (tested: 10 µg/ml)	no binding (tested: 10 µg/ml)	no binding (tested: 10 µg/ml)	> 3	> 1
I-C2 IgG1 (antibody, V domains shown, Human IgG1) VH: EVQLVESGGGLVQPGGSLRLSCAASGFSLSTSGYGVGWVRQAPGKGLEWLAHIWWDDDKYYVDSVKGRFTISRDNAKNSLYLQMNSLRAEDTAVYYCARTRLYFPFAYWGQGTLVTVSS VL: EIVLTQSPATLSLSPGERATLSCRASQNVGSNLAWYQQKPGQAPRLLIYSASNRYSGIPARFSGSGSGTDFTLTISSLEPEDFAVYYCQQYSTDPLTFGGGTKVEIK	~1110	no binding (tested: 10 µg/ml)	no binding (tested: 10 µg/ml)	no binding (tested: 10 µg/ml)	no binding (tested: 10 µg/ml)	no binding (tested: 10 µg/ml)	no binding (tested: 10 µg/ml)	> 3	> 1
VH3/VL2 IgG1 (antibody, V domains shown, Human IgG1; template of the mutagenesis library; also called G-VH3/VL2; VH3 family) VH: EVQLVESGGGLVQPGGSLRLSCAASGFSLSTSGMGVGWVRQAPGKGLEWLAHIWWDDDKYYVDSVKGRFTISRDNAKNSLYLQMNSLRAEDTAVYYCARTRRYFPFAYWGQGTLVTVSS VL: EIVLTQSPATLSLSPGERATLSCRASQNVGTNVAWYQQKPGQAPRLLIYSASYRYSGIPARFSGSGSGTDFTLTISSLEPEDFAVYYCQQYNTDPLTFGGGTKVEIK	~1110	no binding (tested: 10 µg/ml)	no binding (tested: 10 µg/ml)	no binding (tested: 10 µg/ml)	no binding (tested: 10 µg/ml)	no binding (tested: 10 µg/ml)	no binding (tested: 10 µg/ml)	> 3	> 1
